What was measured:
MEDI1912 (human) = assay: SPR; Biacore 2000, HBS-EP buffer; 100 RU MEDI1912 or MEDI1912_STT IgG amine coupled to a C1 sensor chip; two-fold dilutions of βNGF (10 nM to 78 fM) at 50 µl/min, 300-3600 s dissociation; 1:1 Langmuir fit
MEDI1912_STT (human) = assay: as above
MEDI1912 IgG (human) [1] = assay: AUC; sedimentation velocity, 1 mg/mL, 20 °C, 20 mM sodium succinate, 125 mM arginine, pH 6.0 or 150 mM ammonium acetate, pH 6; 28,000 rpm; SEDFIT
MEDI1912 IgG (human) [2] = assay: native MS; nESI-IMS-MS, 1 mg/mL dialysed into 150 mM ammonium acetate, pH 6; dimer estimated with respect to the monomer ion intensity
[3] = target: human NGF (construct not stated) (human) (UniProt P01138); assay: not stated; Kd for the antigen; method and data in Supplementary Table 2

Substance | koff (MEDI1912 (human)) | kon (MEDI1912 (human)) | koff (MEDI1912_STT (human)) | kon (MEDI1912_STT (human)) | percent dimer (MEDI1912 IgG (human) [1]) | stoichiometry N (MEDI1912 IgG (human) [1]) | dimer as percent of the monomer ion intensity (MEDI1912 IgG (human) [2]) | stoichiometry N (MEDI1912 IgG (human) [2]) | Kd [3]
recombinant βNGF (R&D Systems) (from UniProt P01138 122-241) (ligand) | 3.3e-05 to 0.0002 s⁻¹ | 2.1e+07 M⁻¹ s⁻¹ | 3.2e-05 to 0.00015 s⁻¹ | 1.8e+07 M⁻¹ s⁻¹ | – | – | – | – | –
MEDI1912 IgG (antibody) | – | – | – | – | > 75% | 2 | 11.4% | < 4 | 1.6 to 9.8 pM

— publication PMC5171805
